Measurements as given in patent publication US20100303858A1.

Key:
[1] = biological target: gp120/sCD4 complex (HIV-1 YU2) (UniProt P35961); experiment: SPR (BIACORE 2000), antibody immobilized on CM4 chip, gp120/sCD4 as analyte, 1:1 Langmuir fit
[2] = biological target: gp120/sCD4 complex (HIV-1 YU2) (UniProt P35961); experiment: SPR, antibody immobilized; KD of gp120/sCD4 against KD of gp120ΔV1/V2sdCD4 and gp120ΔV2sdCD4
[3] = biological target: gp120ΔV1/V2sdCD4 chimeric protein (HIV-1 YU2) (UniProt P35961); experiment: SPR (BIACORE 2000), antibody immobilized on CM4 chip, chimeric protein as analyte, 1:1 Langmuir fit
[4] = biological target: gp120ΔV2sdCD4 chimeric protein (HIV-1 YU2) (UniProt P35961); experiment: as above
[5] = biological target: gp120/sCD4 complex (HIV-1 YU2) (UniProt P35961); experiment: ELISA, gp120/sCD4 captured by D7324, bound antibody as OD 490 nm
[6] = biological target: wild type gp120YU2 (HIV-1 YU2) (UniProt P35961); experiment: ELISA, gp120 captured by D7324, bound antibody as OD 490 nm

| Substance | Kd [1] [pM] | koff [1] [s⁻¹] | kon [1] [M⁻¹ s⁻¹] | fold KD against the chimeric proteins [2] [fold] | Kd [3] [pM] | koff [3] [s⁻¹] | kon [3] [M⁻¹ s⁻¹] | Kd [4] [pM] | koff [4] [s⁻¹] | kon [4] [M⁻¹ s⁻¹] | EC50 (read off the curve) [5] [µg/mL] | EC50 (read off the curve) [6] [µg/mL] |
| --- | --- | --- | --- | --- | --- | --- | --- | --- | --- | --- | --- | --- |
| human CD4i monoclonal antibody 4.8D | 1200 | 0.000212 | 177000 | 100 | 15 | 0.000149 | 9.45e+06 | 38 | 0.000197 | 5.2e+06 |  |  |
| human CD4i monoclonal antibody E51 | 210 | 0.000169 | 796000 |  | 12 | 0.000516 | 4.27e+07 | 13 | 0.000398 | 3.08e+07 |  |  |
| human MAb F105 (antibody) |  |  |  |  |  |  |  |  |  |  | 0.3 | 0.1 |
